For 1 substance, percent decrease in binding against WT results are on record in PMC4161475.

The target in the assay is G-actin (rabbit skeletal muscle actin, monomeric) (rabbit) (UniProt P68135). Put plainly: ELISA; solid-phase assay: wells coated with 5 µM G-actin in PBS, 5 µM protein added, detected with anti-EhCoactosin antibody; in the presence of Ca2+ (2 mM) or EGTA (5 mM). In general terms: ELISA stands for enzyme-linked immunosorbent assay.

On to “EhCoactosin with the C-terminal 14 residues deleted (domain or fragment)”, for which the percent decrease in binding against WT turned out to be 33%.
